Starred links: 1 amine or outer side, 2 acyl side, 3 side chain; linkers in the order of their positions; H or OH if unused. Non-standard residues stand in square brackets, D forms with d. *: point of attachment. Imidazole4carbonyl = O=C(c1cnc[nH]1)*; 4Pal = N[C@@H](Cc1ccncc1)C(=O)O; Cha = N[C@@H](CC1CCCCC1)C(=O)O; Cit = NC(=O)NCCC[C@H](N)C(=O)O; Isonicotinoyl = O=C(c1ccncc1)*; Suc = O=C(CCC(=O)[*:2])[*:1]; Isobutyryl = CC(C)C(=O)*; Nle = CCCC[C@H](N)C(=O)O; Aib = CC(C)(N)C(=O)O; βAla = NCCC(=O)O
Legend:
[1] = target: human Y2 receptor (human) (UniProt P49146); experiment: RBA: displacement of [125I]-PYY from hY2R/CHO membranes
[2] = target: human Y2 receptor (human) (UniProt P49146); experiment: cell-based or functional assay

Sequence of human Y2 receptor (human) (P49146 whole entry): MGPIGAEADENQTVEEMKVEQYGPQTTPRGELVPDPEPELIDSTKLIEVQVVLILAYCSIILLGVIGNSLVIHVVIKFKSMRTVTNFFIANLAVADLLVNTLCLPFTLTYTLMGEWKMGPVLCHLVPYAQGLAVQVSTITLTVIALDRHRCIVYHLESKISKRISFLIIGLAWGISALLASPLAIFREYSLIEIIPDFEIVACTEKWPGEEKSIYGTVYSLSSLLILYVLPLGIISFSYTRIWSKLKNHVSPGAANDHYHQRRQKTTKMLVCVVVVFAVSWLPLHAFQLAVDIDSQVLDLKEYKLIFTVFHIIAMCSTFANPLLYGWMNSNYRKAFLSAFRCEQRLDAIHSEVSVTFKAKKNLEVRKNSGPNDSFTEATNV

| Binder | IC50 Ratio (IC50 compound/IC50 PYY(3-36)) [1] | GBA EC50 Ratio ([35S]GTPγS binding) (EC50 compound/EC50 PYY(3-36)) [2] |
| --- | --- | --- |
| Ac-S[βAla]R[4Pal][Cha][Aib]NK[Aib]TRQR[Cha]-NH2 (SMILES CC(=O)N[C@@H](CO)C(=O)NCCC(=O)N[C@@H](CCCNC(=N)N)C(=O)N[C@@H](Cc1ccncc1)C(=O)N[C@@H](CC1CCCCC1)C(=O)NC(C)(C)C(=O)N[C@@H](CC(N)=O)C(=O)N[C@@H](CCCCN)C(=O)NC(C)(C)C(=O)N[C@H](C(=O)N[C@@H](CCCNC(=N)N)C(=O)N[C@@H](CCC(N)=O)C(=O)N[C@@H](CCCNC(=N)N)C(=O)N[C@@H](CC1CCCCC1)C(N)=O)[C@@H](C)O) [Ac-[βAla24, Pya(4)26, Cha27,36, Aib28,31, Lys30]-PYY(23-36)] | 1.9 | 1.1 |
| Suc-Q[dP]R[4Pal][Cha][Aib]NK[Aib]TRQR[Cha]-NH2 (SMILES C[C@@H](O)[C@H](NC(=O)C(C)(C)NC(=O)[C@H](CCCCN)NC(=O)[C@H](CC(N)=O)NC(=O)C(C)(C)NC(=O)[C@H](CC1CCCCC1)NC(=O)[C@H](Cc1ccncc1)NC(=O)[C@H](CCCNC(=N)N)NC(=O)[C@H]1CCCN1C(=O)[C@H](CCC(N)=O)NC(=O)CCC(=O)O)C(=O)N[C@@H](CCCNC(=N)N)C(=O)N[C@@H](CCC(N)=O)C(=O)N[C@@H](CCCNC(=N)N)C(=O)N[C@@H](CC1CCCCC1)C(N)=O) [3-Carboxypropionyl-[Gln23, D-Pro24, Pya(4)26, Cha27,36, Aib28,31, Lys30]-PYY(23-36)] | 2 | 1.9 |
| Isobutyryl-E[dP]R[4Pal][Cha][Aib]NK[Aib]TRQR[Cha]-NH2 (SMILES CC(C)C(=O)N[C@@H](CCC(=O)O)C(=O)N1CCC[C@@H]1C(=O)N[C@@H](CCCNC(=N)N)C(=O)N[C@@H](Cc1ccncc1)C(=O)N[C@@H](CC1CCCCC1)C(=O)NC(C)(C)C(=O)N[C@@H](CC(N)=O)C(=O)N[C@@H](CCCCN)C(=O)NC(C)(C)C(=O)N[C@H](C(=O)N[C@@H](CCCNC(=N)N)C(=O)N[C@@H](CCC(N)=O)C(=O)N[C@@H](CCCNC(=N)N)C(=O)N[C@@H](CC1CCCCC1)C(N)=O)[C@@H](C)O) [Isobutanoyl-[Glu23, D-Pro24, Pya(4)26, Cha27,36, Aib28,31, Lys30]-PYY(23-36)] | 1.9 | 2 |
| Ac-S[dP][Cit]H[Cha][Aib]NK[Aib]TRQR[Cha]-NH2 (SMILES CC(=O)N[C@@H](CO)C(=O)N1CCC[C@@H]1C(=O)N[C@@H](CCCNC(N)=O)C(=O)N[C@@H](Cc1c[nH]cn1)C(=O)N[C@@H](CC1CCCCC1)C(=O)NC(C)(C)C(=O)N[C@@H](CC(N)=O)C(=O)N[C@@H](CCCCN)C(=O)NC(C)(C)C(=O)N[C@H](C(=O)N[C@@H](CCCNC(=N)N)C(=O)N[C@@H](CCC(N)=O)C(=O)N[C@@H](CCCNC(=N)N)C(=O)N[C@@H](CC1CCCCC1)C(N)=O)[C@@H](C)O) [Ac-[D-Pro24, Cit25, Cha27,36, Aib28,31, Lys30]-PYY(23-36)] | 6.2 | 4.6 |
| Ac-Q[dP]R[4Pal][Cha][Aib]NK[Aib]TRQR[Cha]-NH2 (SMILES CC(=O)N[C@@H](CCC(N)=O)C(=O)N1CCC[C@@H]1C(=O)N[C@@H](CCCNC(=N)N)C(=O)N[C@@H](Cc1ccncc1)C(=O)N[C@@H](CC1CCCCC1)C(=O)NC(C)(C)C(=O)N[C@@H](CC(N)=O)C(=O)N[C@@H](CCCCN)C(=O)NC(C)(C)C(=O)N[C@H](C(=O)N[C@@H](CCCNC(=N)N)C(=O)N[C@@H](CCC(N)=O)C(=O)N[C@@H](CCCNC(=N)N)C(=O)N[C@@H](CC1CCCCC1)C(N)=O)[C@@H](C)O) [Ac-[Gln23, D-Pro24, Pya(4)26, Cha27,36, Aib28,31, Lys30]-PYY(23-36)] | 1.3 | 0.9 |
| Ac-T[dP]R[4Pal][Cha][Aib]NK[Aib]TRQR[Cha]-NH2 (SMILES CC(=O)N[C@H](C(=O)N1CCC[C@@H]1C(=O)N[C@@H](CCCNC(=N)N)C(=O)N[C@@H](Cc1ccncc1)C(=O)N[C@@H](CC1CCCCC1)C(=O)NC(C)(C)C(=O)N[C@@H](CC(N)=O)C(=O)N[C@@H](CCCCN)C(=O)NC(C)(C)C(=O)N[C@H](C(=O)N[C@@H](CCCNC(=N)N)C(=O)N[C@@H](CCC(N)=O)C(=O)N[C@@H](CCCNC(=N)N)C(=O)N[C@@H](CC1CCCCC1)C(N)=O)[C@@H](C)O)[C@@H](C)O) [Ac-[Thr23, D-Pro24, Pya(4)26, Cha27,36, Aib28,31, Lys30]-PYY(23-36)] | 1.1 | 0.69 |
| Ac-E[βAla]R[4Pal][Cha][Aib]NK[Aib]TRQR[Cha]-NH2 (SMILES CC(=O)N[C@@H](CCC(=O)O)C(=O)NCCC(=O)N[C@@H](CCCNC(=N)N)C(=O)N[C@@H](Cc1ccncc1)C(=O)N[C@@H](CC1CCCCC1)C(=O)NC(C)(C)C(=O)N[C@@H](CC(N)=O)C(=O)N[C@@H](CCCCN)C(=O)NC(C)(C)C(=O)N[C@H](C(=O)N[C@@H](CCCNC(=N)N)C(=O)N[C@@H](CCC(N)=O)C(=O)N[C@@H](CCCNC(=N)N)C(=O)N[C@@H](CC1CCCCC1)C(N)=O)[C@@H](C)O) [Ac-[Glu23, βAla24, Pya(4)26, Cha27,36, Aib28,31, Lys30]-PYY(23-36)] | 7.4 | 3.9 |
| Ac-AE[dP]R[4Pal][Cha][Aib]NK[Aib]TRQR[Cha]-NH2 (SMILES CC(=O)N[C@@H](C)C(=O)N[C@@H](CCC(=O)O)C(=O)N1CCC[C@@H]1C(=O)N[C@@H](CCCNC(=N)N)C(=O)N[C@@H](Cc1ccncc1)C(=O)N[C@@H](CC1CCCCC1)C(=O)NC(C)(C)C(=O)N[C@@H](CC(N)=O)C(=O)N[C@@H](CCCCN)C(=O)NC(C)(C)C(=O)N[C@H](C(=O)N[C@@H](CCCNC(=N)N)C(=O)N[C@@H](CCC(N)=O)C(=O)N[C@@H](CCCNC(=N)N)C(=O)N[C@@H](CC1CCCCC1)C(N)=O)[C@@H](C)O) [Ac-[Glu23, D-Pro24, Pya(4)26, Cha27,36, Aib28,31, Lys30]-PYY(22-36)] | 5.3 | 3.5 |
| Isonicotinoyl-E[dP]R[4Pal][Cha][Aib]NK[Aib]TRQR[Cha]-NH2 (SMILES C[C@@H](O)[C@H](NC(=O)C(C)(C)NC(=O)[C@H](CCCCN)NC(=O)[C@H](CC(N)=O)NC(=O)C(C)(C)NC(=O)[C@H](CC1CCCCC1)NC(=O)[C@H](Cc1ccncc1)NC(=O)[C@H](CCCNC(=N)N)NC(=O)[C@H]1CCCN1C(=O)[C@H](CCC(=O)O)NC(=O)c1ccncc1)C(=O)N[C@@H](CCCNC(=N)N)C(=O)N[C@@H](CCC(N)=O)C(=O)N[C@@H](CCCNC(=N)N)C(=O)N[C@@H](CC1CCCCC1)C(N)=O) [4-Pyridinecarbonyl-[Glu23, D-Pro24, Pya(4)26, Cha27,36, Aib28,31, Lys30]-PYY(23-36)] | 1.9 | 1.8 |
| Ac-S[dP][Nle][4Pal][Cha][Aib]NK[Aib]TRQR[Cha]-NH2 (SMILES CCCC[C@H](NC(=O)[C@H]1CCCN1C(=O)[C@H](CO)NC(C)=O)C(=O)N[C@@H](Cc1ccncc1)C(=O)N[C@@H](CC1CCCCC1)C(=O)NC(C)(C)C(=O)N[C@@H](CC(N)=O)C(=O)N[C@@H](CCCCN)C(=O)NC(C)(C)C(=O)N[C@H](C(=O)N[C@@H](CCCNC(=N)N)C(=O)N[C@@H](CCC(N)=O)C(=O)N[C@@H](CCCNC(=N)N)C(=O)N[C@@H](CC1CCCCC1)C(N)=O)[C@@H](C)O) [Ac-[D-Pro24, Nle25, Pya(4)26, Cha27,36, Aib28,31, Lys30]-PYY(23-36)] | 3 | 2.4 |
| Ac-AS[dP]R[4Pal][Cha][Aib]NK[Aib]TRQR[Cha]-NH2 (SMILES CC(=O)N[C@@H](C)C(=O)N[C@@H](CO)C(=O)N1CCC[C@@H]1C(=O)N[C@@H](CCCNC(=N)N)C(=O)N[C@@H](Cc1ccncc1)C(=O)N[C@@H](CC1CCCCC1)C(=O)NC(C)(C)C(=O)N[C@@H](CC(N)=O)C(=O)N[C@@H](CCCCN)C(=O)NC(C)(C)C(=O)N[C@H](C(=O)N[C@@H](CCCNC(=N)N)C(=O)N[C@@H](CCC(N)=O)C(=O)N[C@@H](CCCNC(=N)N)C(=O)N[C@@H](CC1CCCCC1)C(N)=O)[C@@H](C)O) [Ac-[D-Pro24, Pya(4)26, Cha27,36, Aib28,31, Lys30]-PYY(22-36)] | 2.3 | 1.7 |
| Imidazole4carbonyl-E[dP]R[4Pal][Cha][Aib]NK[Aib]TRQR[Cha]-NH2 (SMILES C[C@@H](O)[C@H](NC(=O)C(C)(C)NC(=O)[C@H](CCCCN)NC(=O)[C@H](CC(N)=O)NC(=O)C(C)(C)NC(=O)[C@H](CC1CCCCC1)NC(=O)[C@H](Cc1ccncc1)NC(=O)[C@H](CCCNC(=N)N)NC(=O)[C@H]1CCCN1C(=O)[C@H](CCC(=O)O)NC(=O)c1cnc[nH]1)C(=O)N[C@@H](CCCNC(=N)N)C(=O)N[C@@H](CCC(N)=O)C(=O)N[C@@H](CCCNC(=N)N)C(=O)N[C@@H](CC1CCCCC1)C(N)=O) [4-Imidazolecarbonyl-[Glu23, D-Pro24, Pya(4)26, Cha27,36, Aib28,31, Lys30]-PYY(23-36)] | 1.3 | 1.3 |
| Ac-E[dP][Nle][4Pal][Cha][Aib]NK[Aib]TRQR[Cha]-NH2 (SMILES CCCC[C@H](NC(=O)[C@H]1CCCN1C(=O)[C@H](CCC(=O)O)NC(C)=O)C(=O)N[C@@H](Cc1ccncc1)C(=O)N[C@@H](CC1CCCCC1)C(=O)NC(C)(C)C(=O)N[C@@H](CC(N)=O)C(=O)N[C@@H](CCCCN)C(=O)NC(C)(C)C(=O)N[C@H](C(=O)N[C@@H](CCCNC(=N)N)C(=O)N[C@@H](CCC(N)=O)C(=O)N[C@@H](CCCNC(=N)N)C(=O)N[C@@H](CC1CCCCC1)C(N)=O)[C@@H](C)O) [Ac-[Glu23, D-Pro24, Nle25, Pya(4)26, Cha27,36, Aib28,31, Lys30]-PYY(23-36)] | 7.5 | 6.9 |
